Key:
Test in all cases: SPR
[1] = target: VH1 K22A mutant (His-MBP-VH1 fusion) (vaccinia virus Copenhagen strain, UniProt P20495 1-171, K22A)
[2] = target: VH1 T59A mutant (His-MBP-VH1 fusion) (vaccinia virus Copenhagen strain, UniProt P20495 1-171, T59A)
[3] = target: VH1 K20A mutant (His-MBP-VH1 fusion) (vaccinia virus Copenhagen strain, UniProt P20495 1-171, K20A)
[4] = target: VH1 M60A mutant (His-MBP-VH1 fusion) (vaccinia virus Copenhagen strain, UniProt P20495 1-171, M60A)
[5] = target: VH1 T25A mutant (His-MBP-VH1 fusion) (vaccinia virus Copenhagen strain, UniProt P20495 1-171, T25A)
[6] = target: VH1 C110S mutant (His-MBP-VH1 fusion) (vaccinia virus Copenhagen strain, UniProt P20495 1-171, C110S)

Measured: binding result

VDADEYLIPQQ [EGFR pTyr peptide 986-VDADEpYLIPQQ-998 (11-mer)]
binds: [1] | [2] | [3] | [4] | [5] | [6]

Reference: publication doi:10.1101/2020.05.26.100743 (bioRxiv, 2020)
